# Reference: patent publication US20240041978A1, “LA PROTEIN AS A NOVEL REGULATOR OF OSTEOCLASTOGENESIS” (The U.S.A., as Represented by the Secretary, Department of …, priority 2021, published 2024)
# B1: La 1-375: amino acids 1-375 of human La lacking NLS; recombinant protein or overexpressed from FLAG plasmid (protein, listed as Homo sapiens)
# chain: MAENGDNEKMAALEAKICHQIEYYFGDFNLPRDKFLKEQIKLDEGWVPLEIMIKFNRLNRLTTDFNVIVEALSKSKAELMEISEDKTKIRRSPSKPLPEVTDEYKNDVKNRSVYIKGFPTDATLDDIKEWLEDKGQVLNIQMRRTLHKAFKGSIFVVFDSIESAKKFVETPGQKYKETDLLILFKDDYFAKKNEERKQNKVEAKLRAKQEQEAKQKLEEDAEMKSLEEKIGCLLKFSGDLDDQTCREDLHILFSNHGEIKWIDFVRGAKEGIILFKEKAKEALGKAKDANNGNLQLRNKEVTWEVLEGEVEKEALKKIIEDQQESLNKWKSKGRRFKGKGKGNKAAQPGSGKGKVQFQGKKTKFASDDEHDEHDE
# B2: La 1-375 RNAΔ: La 1-375 with three point mutations impairing La domain RNA binding (protein, UniProt P05455 1-375, looked up, variant Q20A Y24A D33I)
# chain: MAENGDNEKMAALEAKICHAIEYAFGDFNLPRIKFLKEQIKLDEGWVPLEIMIKFNRLNRLTTDFNVIVEALSKSKAELMEISEDKTKIRRSPSKPLPEVTDEYKNDVKNRSVYIKGFPTDATLDDIKEWLEDKGQVLNIQMRRTLHKAFKGSIFVVFDSIESAKKFVETPGQKYKETDLLILFKDDYFAKKNEERKQNKVEAKLRAKQEQEAKQKLEEDAEMKSLEEKIGCLLKFSGDLDDQTCREDLHILFSNHGEIKWIDFVRGAKEGIILFKEKAKEALGKAKDANNGNLQLRNKEVTWEVLEGEVEKEALKKIIEDQQESLNKWKSKGRRFKGKGKGNKAAQPGSGKGKVQFQGKKTKFASDDEHDEHDE
# Key:
# Assay type in all cases: cell-based
# [1] = tested on: human, monocyte-derived osteoclasts; assay: Bone resorption assay (fluoresceinamine-labeled chondroitin sulfate on calcium phosphate-coated plates)
# Experimental: There is a relationship between osteoclast fusion and bone resorption (Makris and Saffar, Arch Oral Biol 27, 965-969, doi:10.1016/0003-9969(82)90104-2 (1982); Piper et al., Anat Embryol (Berl) 186, 291-299, doi:10.1007/BF00185977 (1992); Moller et al., Int J Mol Sci 21, doi:10.3390/ijms21176368 (2020)). It was hypothesized that by regulating osteoclast size, La also regulates bone resorption. This hypothesis was evaluated by differentiating osteoclasts on fluoresceinated calcium phosphate, a biomimetic of bone, and assessed osteoclast-dependent bone resorption by the release of fluorescein into the media (FIG. 5A). […] Overexpression of La 1-375 promoted bone resorption, while the uncleavable La mutant, D371,374A, had no effect (FIG. 5B).
# Bone Resorption: Bone resorption was evaluated using bone resorption assay kits from Cosmo Bio USA according to the manufacturer's instructions. Briefly, fluoresceinamine-labeled chondroitin sulfate was used to label 24-well, calcium phosphate-coated plates. Human, monocyte-derived osteoclasts were differentiated as described above, using alpha MEM without phenol red. Media were collected at 4-5 days post RANKL addition, and fluorescence intensity within the media was evaluated as recommended by the manufacture.
# [2] = tested on: RAW 264.7 derived, murine osteoclasts; assay: Osteoclast fusion assay in RAW 264.7 derived osteoclasts; conditions: overexpression from expression plasmid vs empty plasmid
# Experimental: Osteoclasts: Elutriated monocytes from healthy donors were obtained. Cells were plated at 2.9×10^5 per cm^2 in 35 mm dishes with polymer coverslip bottoms (Ibidi #81156) for imaging or 35 mm or 10 cm dishes for biochemical experiments in complete media [α-MEM supplemented with 10% Fetal Bovine Serum (FBS) and penicillin-streptomycin-L-glutamine (Gibco Invitrogene #12571063; #26140079 and #10378016, respectively)]. Monocytes were differentiated to M2 macrophages in the presence of 100 ng/ml M-CSF for 6 days and then differentiated with 100 ng/ml M-CSF and 100 ng/ml RANKL for 3 days unless indicated otherwise. RAW 264.7 cells (ATCC, Manassas, VA, #TIB-71) were maintained in DMEM supplemented with 10% FBS to a maximum of 8 passages. […]
# Fusion Assays: Osteoclast fusion in the culture systems was evaluated by fluorescence microscopy (Verma et al., J Biol Chem 293, 254-270, doi:10.1074/jbc.M117.809681 (2018)). […] Osteoclast fusion efficiency was evaluated as the number of fusion events between cells in these images, as described previously. Since regardless of the sequence of fusion events, the number of cell-to-cell fusion events required to generate syncytium with N nuclei is always equal to N−1, the fusion number index was calculated as Σ(Ni−1)=Ntotal−Nsyn, where Ni=the number of nuclei in individual syncytia and Nsyn=the total number of syncytia. […]
# [3] = tested on: human monocyte-derived osteoclasts; assay: Osteoclast fusion assay (number of fusion events, fluorescence microscopy); conditions: for formation of multinucleated syncytia (osteoclast fusion): recombinant protein ~40 nM added end of day 2 post-RANKL, overnight
# Experimental: Osteoclasts: Elutriated monocytes from healthy donors were obtained. Cells were plated at 2.9×10^5 per cm^2 in 35 mm dishes with polymer coverslip bottoms (Ibidi #81156) for imaging or 35 mm or 10 cm dishes for biochemical experiments in complete media [α-MEM supplemented with 10% Fetal Bovine Serum (FBS) and penicillin-streptomycin-L-glutamine (Gibco Invitrogene #12571063; #26140079 and #10378016, respectively)]. Monocytes were differentiated to M2 macrophages in the presence of 100 ng/ml M-CSF for 6 days and then differentiated with 100 ng/ml M-CSF and 100 ng/ml RANKL for 3 days unless indicated otherwise. RAW 264.7 cells (ATCC, Manassas, VA, #TIB-71) were maintained in DMEM supplemented with 10% FBS to a maximum of 8 passages. RAW 264.7 cells were differentiated to osteoclasts in the presence of 100 ng/ml murine RANKL for 5 days. To separate unfused mononucleated and fused, multinucleated RAW 264.7 cells into separate fractions, advantage was taken of the much stronger adherence of multinucleated cells to culture dish plastic. After washing in PBS, mixed RAW cultures (following RANKL differentiation) were left in Ca^2+ and Mg^2+ free PBS for 10 minutes at room temperature. Culture dishes were then tapped on the lab bench and a large portion of unfused, mononucleated RAW cells were released, and these released cells were collected via centrifugation. This process was repeated 2-4 times until dishes were left with a population of primarily fused, multinucleated syncytia. Mononucleated and multinucleated cell fractions were then processed for biochemical or imaging experiments as described below.
# Constructs & Recombinant proteins & Transfection: Recombinant La 1-408, 1-375, 1-375 Q20A_Y24A_D33I, 1-187 and 188-375 were amplified with primers designed with overlapping sequences and inserted between NdeI/HindIII in the V78 pET28A E. coli expression vector, adding to each a N-terminal 6×his affinity tag. La 1-408 was expressed as a recombinant protein in E. coli and purified using IMAC columns by SD Biosciences (San Diego, CA). The remaining constructs were transformed into BL2 (DE3) chemically competent E. coli (Thermo Fisher Scientific) and protein expression was induced with IPTG. Cells were lysed with Bugbuster (Sigma), and 6×his-La proteins were affinity purified using HisPur Cobalt Spin columns (Thermo Fisher Scientific), each according to the manufacturer's instructions. Endotoxin contaminates were depleted from affinity purified 6×his-La proteins using Pierce high-capacity endotoxin removal columns (Thermo Fisher Scientific), according to the manufacturer's instructions. Proteins were then sterile filtered, aliquoted and kept at −80 C.
# Plasmids were introduced into primary osteoclasts at day 2 of RANKL stimulation via jetPRIME (Polyplus Transfection). FLAG-La 1-408, FLAG-La 1-375 and FLAG-La 1-375 Q20A_Y24A_D33I plasmids were a gift of the Maraia Lab (NICHD). Briefly, SSB (UniProt P05455) was inserted between HindIII and BamHI the pFLAG-CMV2 vector (Sigma). “Uncleavable” La was produced by taking the FLAG-La 1-408 plasmid and making two point mutations at amino acids D371A and D374A, abrogating the caspase cleavage sites at the C-terminal region of the protein (Emory Integrated Genomics Core). siRNA were introduced into primary osteoclasts after 1 day of RANKL stimulation via Lipofectamine RNAiMAX (Thermo Fisher Scientific). Non-targeted (Cat #4390843) and SSB-targeted (Cat #4392420_ID:s13469) siRNA were introduced at a concentration of 5 ng/ml (Silencer Select, Ambion).
# Fusion Assays: Osteoclast fusion in the culture systems was evaluated by fluorescence microscopy (Verma et al., J Biol Chem 293, 254-270, doi:10.1074/jbc.M117.809681 (2018)). Briefly, cells were fixed with 4% paraformaldehyde at timepoints of interest, permeabilized with 0.1% TRITON™ X-100 and blocked with 5% FBS. Cells were then stained with phallodin-ALEXAFLURO®488 and Hoechst to label cells' actin cytoskeleton and nuclei, respectively. […]
molecule,measurement,setting,value
B1,osteoclast bone resorption,"[1]; 40 nM recombinant protein, extracellular addition, vs PBS",dramatically increased
same,bone resorption,"[1]; overexpression, normalized to empty plasmid",promoted
same,osteoclast fusion (fusion events in syncytia with 3+ nuclei),[2],greatly promoted
same,osteoclast fusion (fusion events in syncytia with 3+ nuclei),"[3]; overexpression from expression plasmid vs empty plasmid, human osteoclasts",greatly promoted
same,formation of multinucleated syncytia (osteoclast fusion),[3],significantly promoted
B2,osteoclast fusion (fusion events in syncytia with 3+ nuclei),[2],promoted formation of multinucleated osteoclasts as robustly as wild type La 1-375
same,formation of multinucleated syncytia (osteoclast fusion),[3],significantly promoted
